# Measured values: US20250276090A1, “Methods and Compositions for Genetically Modifying a Cell” (Intellia Therapeutics, Inc., priority 2022, published 2025)
# Strand notation (5' to 3'): a small letter for the sugar, then the base; units joined by * are phosphorothioate-linked, units joined directly phosphodiester-linked; [ ] holds rarer units or linkages, { } end groups; capitals alone tell only the bases. m = 2'-O-methyl; r = 2'-OH (RNA)
# B1: G013584: AAVS1 SpyCas9 guide RNA, guide sequence SEQ ID NO: 264, chr19:55115949-55115969 (nucleic acid)
# guide: mC*mC*mC*rUrGrGrArArGrArUrGrCrCrArUrGrArCrArGrUrUrUrUrArGrAmGmCmUmAmGmAmAmAmUmAmGmCrArArGrUrUrArArArArUrArArGrGrCrUrArGrUrCrCrGrUrUrArUrCrAmAmCmUmUmGmAmAmAmAmAmGmUmGmGmCmAmCmCmGmAmGmUmCmGmGmUmGmCmU*mU*mU*mU
# B2: G013564: AAVS1 SpyCas9 guide RNA, guide sequence SEQ ID NO: 261, chr19:55115836-55115856 (nucleic acid)
# guide: mU*mA*mU*rArArGrGrUrGrGrUrCrCrCrArGrCrUrCrGrGrUrUrUrUrArGrAmGmCmUmAmGmAmAmAmUmAmGmCrArArGrUrUrArArArArUrArArGrGrCrUrArGrUrCrCrGrUrUrArUrCrAmAmCmUmUmGmAmAmAmAmAmGmUmGmGmCmAmCmCmGmAmGmUmCmGmGmUmGmCmU*mU*mU*mU
# B3: G013562: AAVS1 SpyCas9 guide RNA, guide sequence SEQ ID NO: 259, chr19:55115834-55115854 (nucleic acid)
# guide: mA*mA*mU*rArUrArArGrGrUrGrGrUrCrCrCrArGrCrUrGrUrUrUrUrArGrAmGmCmUmAmGmAmAmAmUmAmGmCrArArGrUrUrArArArArUrArArGrGrCrUrArGrUrCrCrGrUrUrArUrCrAmAmCmUmUmGmAmAmAmAmAmGmUmGmGmCmAmCmCmGmAmGmUmCmGmGmUmGmCmU*mU*mU*mU
# B4: G013563: AAVS1 SpyCas9 guide RNA, guide sequence SEQ ID NO: 260, chr19:55115835-55115855 (nucleic acid)
# guide: mA*mU*mA*rUrArArGrGrUrGrGrUrCrCrCrArGrCrUrCrGrUrUrUrUrArGrAmGmCmUmAmGmAmAmAmUmAmGmCrArArGrUrUrArArArArUrArArGrGrCrUrArGrUrCrCrGrUrUrArUrCrAmAmCmUmUmGmAmAmAmAmAmGmUmGmGmCmAmCmCmGmAmGmUmCmGmGmUmGmCmU*mU*mU*mU
# B5: G013582: AAVS1 SpyCas9 guide RNA, guide sequence SEQ ID NO: 263, chr19:55115951-55115971 (nucleic acid)
# guide: mC*mC*mU*rGrUrCrArUrGrGrCrArUrCrUrUrCrCrArGrGrUrUrUrUrArGrAmGmCmUmAmGmAmAmAmUmAmGmCrArArGrUrUrArArArArUrArArGrGrCrUrArGrUrCrCrGrUrUrArUrCrAmAmCmUmUmGmAmAmAmAmAmGmUmGmGmCmAmCmCmGmAmGmUmCmGmGmUmGmCmU*mU*mU*mU
# B6: G000562: AAVS1 SpyCas9 guide RNA, guide sequence SEQ ID NO: 251, chr19:55115695-55115715 (nucleic acid)
# guide: mC*mC*mA*rArUrArUrCrArGrGrArGrArCrUrArGrGrArGrUrUrUrUrArGrAmGmCmUmAmGmAmAmAmUmAmGmCrArArGrUrUrArArArArUrArArGrGrCrUrArGrUrCrCrGrUrUrArUrCrAmAmCmUmUmGmAmAmAmAmAmGmUmGmGmCmAmCmCmGmAmGmUmCmGmGmUmGmCmU*mU*mU*mU
# B7: G013559: AAVS1 SpyCas9 guide RNA, guide sequence SEQ ID NO: 258, chr19:55115823-55115843 (nucleic acid)
# guide: mC*mC*mG*rGrCrCrCrUrGrGrGrArArUrArUrArArGrGrGrUrUrUrUrArGrAmGmCmUmAmGmAmAmAmUmAmGmCrArArGrUrUrArArArArUrArArGrGrCrUrArGrUrCrCrGrUrUrArUrCrAmAmCmUmUmGmAmAmAmAmAmGmUmGmGmCmAmCmCmGmAmGmUmCmGmGmUmGmCmU*mU*mU*mU
# B8: G013565: AAVS1 SpyCas9 guide RNA, guide sequence SEQ ID NO: 262, chr19:55115850-55115870 (nucleic acid)
# guide: mG*mG*mA*rUrCrCrUrGrUrGrUrCrCrCrCrGrArGrCrUrGrUrUrUrUrArGrAmGmCmUmAmGmAmAmAmUmAmGmCrArArGrUrUrArArArArUrArArGrGrCrUrArGrUrCrCrGrUrUrArUrCrAmAmCmUmUmGmAmAmAmAmAmGmUmGmGmCmAmCmCmGmAmGmUmCmGmGmUmGmCmU*mU*mU*mU
# B9: G013533: AAVS1 SpyCas9 guide RNA, guide sequence SEQ ID NO: 256, chr19:55115691-55115711 (nucleic acid)
# guide: mA*mG*mA*rCrCrCrArArUrArUrCrArGrGrArGrArCrUrGrUrUrUrUrArGrAmGmCmUmAmGmAmAmAmUmAmGmCrArArGrUrUrArArArArUrArArGrGrCrUrArGrUrCrCrGrUrUrArUrCrAmAmCmUmUmGmAmAmAmAmAmGmUmGmGmCmAmCmCmGmAmGmUmCmGmGmUmGmCmU*mU*mU*mU
# B10: G013515: AAVS1 SpyCas9 guide RNA, guide sequence SEQ ID NO: 252, chr19:55115588-55115608 (nucleic acid)
# guide: mC*mC*mA*rUrCrGrUrArArGrCrArArArCrCrUrUrArGrGrUrUrUrUrArGrAmGmCmUmAmGmAmAmAmUmAmGmCrArArGrUrUrArArArArUrArArGrGrCrUrArGrUrCrCrGrUrUrArUrCrAmAmCmUmUmGmAmAmAmAmAmGmUmGmGmCmAmCmCmGmAmGmUmCmGmGmUmGmCmU*mU*mU*mU
# B11: G013519: AAVS1 SpyCas9 guide RNA, guide sequence SEQ ID NO: 253, chr19:55115616-55115636 (nucleic acid)
# guide: mG*mC*mA*rArGrGrArGrArGrArGrArUrGrGrCrUrCrCrGrUrUrUrUrArGrAmGmCmUmAmGmAmAmAmUmAmGmCrArArGrUrUrArArArArUrArArGrGrCrUrArGrUrCrCrGrUrUrArUrCrAmAmCmUmUmGmAmAmAmAmAmGmUmGmGmCmAmCmCmGmAmGmUmCmGmGmUmGmCmU*mU*mU*mU
# B12: G013523: AAVS1 SpyCas9 guide RNA, guide sequence SEQ ID NO: 255, chr19:55115637-55115657 (nucleic acid)
# guide: mG*mG*mU*rGrArCrArCrArCrCrCrCrCrArUrUrUrCrCrGrUrUrUrUrArGrAmGmCmUmAmGmAmAmAmUmAmGmCrArArGrUrUrArArArArUrArArGrGrCrUrArGrUrCrCrGrUrUrArUrCrAmAmCmUmUmGmAmAmAmAmAmGmUmGmGmCmAmCmCmGmAmGmUmCmGmGmUmGmCmU*mU*mU*mU
# B13: G013520: AAVS1 SpyCas9 guide RNA, guide sequence SEQ ID NO: 254, chr19:55115623-55115643 (nucleic acid)
# guide: mG*mA*mG*rArGrArUrGrGrCrUrCrCrArGrGrArArArUrGrUrUrUrUrArGrAmGmCmUmAmGmAmAmAmUmAmGmCrArArGrUrUrArArArArUrArArGrGrCrUrArGrUrCrCrGrUrUrArUrCrAmAmCmUmUmGmAmAmAmAmAmGmUmGmGmCmAmCmCmGmAmGmUmCmGmGmUmGmCmU*mU*mU*mU
# System: AAVS1
# Test: GFP insertion at AAVS1 in T cells with SpyCas9 RNP and gapped AAV templates, flow cytometry (Example 6)
# Assay type: cell-based, human
# Conditions: Donor 1; Template A; day 7 post-editing
# Procedure: AAVS1 guide RNAs were designed and screened to identify insertion SpyCas9 guides using a series of gapped AAV GFP templates (A, B, C, D, OG) each designed for a subset of the guide RNAs. Insertion efficacy in T cells was examined by assessing GFP expression by flow cytometry. The percentage of T cells positive for green fluorescent protein (“% GFP+”) was assayed by flow cytometry, following AAVS1 editing by mRNA and AAV delivery.
# Healthy human donor apheresis was obtained commercially (Hemacare) from two donors (#110042863 and #110040377) and cells were washed and resuspended in MACS Buffer containing 2 mM EDTA and 0.5% Fetal Bovine Serum (FBS) in PBS. Cells were washed twice by centrifugation followed by CD3 negative selection using Easy Sep Human T Cell Isolation Kit (Stemcell, Cat. 100-0695) and separated using Easy Sep Magnets (Stemcell, Cat.18000). T cells were aliquoted and cryopreserved for future use in Cryostor® CS10 (StemCell Technologies Cat. 07930).
# AAVS1 guide RNAs were assessed for insertion efficacy in T cells by assessing GFP expression by flow cytometry. The percentage of T cells positive for green fluorescent protein (“% GFP+”) was assayed by flow cytometry, following AAVS1 editing by mRNA and AAV delivery.
# AAVS1 targeting sgRNAs corresponding to the flanking homology regions of Gap Templates A, B, C, D, & OG (SEQ ID NOs: 299-303) were removed from their storage plates and denatured for 2 minutes at 95° C. before cooling at room temperature for 10 minutes. RNP mixture of 20 μM sgRNA and 10 μM Cas9-NLS protein (SEQ ID NO: 296) was prepared and incubated at 25° C. for 10 minutes. 2.5 μL of RNP mixture was combined with 250,000 cells in […] P3 electroporation Buffer (Lonza). 22 μL of RNP/cell mix was transferred to the corresponding wells of a Lonza shuttle 96-well electroporation plate. Cells were electroporated in duplicate with the manufacturer's pulse code. T cell media described above without any cytokines was added to the cells immediately post electroporation. T cells were rested for 10 minutes at 37° C. Gap Template AAVs were prepared in 48 well plates (Corning, Cat.353078)) with T cell media described above containing 2× cytokines, 400 U/mL recombinant human interleukin-2 (Peprotech, Cat. 200-02), 10 ng/ml recombinant human interleukin 7 (Peprotech, Cat. 200-07), and 10 ng/ml recombinant human interleukin 15 (Peprotech, Cat. 200-15) cytokines. The multiplicity of infection (MOI) of AAVs was 3×10^^5. AAVs were added to the T cells within 15 minutes post electroporation and incubated for 48 hours at 37° C. AAV-6 vectors encoded AAVS1 Template A, B, C, D or OG. Two days post-electroporation, cells were split 1:2 in 48 well plates replenished with T cell media with 1× cytokines as described above. sgRNAs were tested each with AAV constructs and gapped template.
# On day 7 post-editing, cells were phenotyped by flow cytometry to determine GFP expression to confirm integration of AAV at their GAP template site. Briefly, T cells were washed in FACS buffer containing 2 mM EDTA (Invitrogen, Cat.15575020) and 1% FBS in PBS followed by re-suspending in FACS buffer containing 1:10,000 dilution of DAPI (Biolegend, Cat.422801) nuclear stain. Cells were then processed on a Cytoflex flow cytometer (Beckman Coulter) and analyzed using the FlowJo software package. T cells were gated based on size, shape, viability, and GFP expression. Values that were not determined by the flow cytometer were denoted as “ND”. Table 18 and FIGS. 8A-8B show mean percentage of T cells positive for GFP expression.
row,Molecule,Mean percentage of T cells positive for GFP expression
1,B1,69.15%
2,B2,65.95%
3,B3,65.75%
4,B4,73.15%
5,B5,66.30%
6,B6,30.60%

# Same assay, conditions: Donor 1; Template B; day 7 post-editing
row,Molecule,Mean percentage of T cells positive for GFP expression
1,B2,61.50%
2,B3,63.60%
3,B7,65.55%
4,B4,69.15%
5,B8,63.50%
6,B6,34.00%

# Same assay, conditions: Donor 1; Template C; day 7 post-editing
row,Molecule,Mean percentage of T cells positive for GFP expression
1,B9,65.65%
2,B10,61.15%
3,B6,57.95%

# Same assay, conditions: Donor 1; Template D; day 7 post-editing
row,Molecule,Mean percentage of T cells positive for GFP expression
1,B11,73.35%
2,B12,70.50%
3,B13,71.80%
4,B6,29.65%

# Same assay, conditions: Donor 1; Template OG; day 7 post-editing
row,Molecule,Mean percentage of T cells positive for GFP expression
1,B6,41.75%

# Same assay, conditions: Donor 2; Template A; day 7 post-editing
row,Molecule,Mean percentage of T cells positive for GFP expression
1,B1,62.95%
2,B2,61.20%
3,B3,62.35%
4,B4,69.40%
5,B5,61.00%
6,B6,41.20%

# Same assay, conditions: Donor 2; Template B; day 7 post-editing
row,Molecule,Mean percentage of T cells positive for GFP expression
1,B2,63.45%
2,B3,65.40%
3,B7,64.05%
4,B4,71.35%
5,B8,65.00%
6,B6,32.75%

# Same assay, conditions: Donor 2; Template C; day 7 post-editing
row,Molecule,Mean percentage of T cells positive for GFP expression
1,B9,65.15%
2,B10,60.95%
3,B6,59.10%

# Same assay, conditions: Donor 2; Template D; day 7 post-editing
row,Molecule,Mean percentage of T cells positive for GFP expression
1,B11,72.10%
2,B12,72.05%
3,B13,72.20%
4,B6,27.50%

# Same assay, conditions: Donor 2; Template OG; day 7 post-editing
row,Molecule,Mean percentage of T cells positive for GFP expression
1,B6,37.80%
